From the supplement of paper PMC7877785 come the findings set out here.

± gives the uncertainty stated by the source.

A short description of this series: self-splicing fitness, log relative to wild type (ln ratio); higher = more splicing; Tetrahymena group I intron in knt gene, E. coli kanamycin selection, DiMSum; sequences stand for … in CUCUCU…GGAGGGAAAAGUUAUCAGGCAUGCACCUGGUAGCUAGUCUUUAAACCAAUAGAUUGCAUCGGUUUAAAAGGCAAGACCGUCAAAUUGCGGGAAAGGGGUCAACAGCCGUUCAGUACCAAGUCUCAGGGGAAACUUUGAGAUGGCCUUGCAAAGGGUAUGGUAAUAAGCUGACGGACAUGGUCCUAACCACGCAGCCAAGUCCUAAGUCAACAGAUCUUCUGUUGAUAUGGAUGCAGUUCACAGACUAAAUGUCGGUCGGGGAAGAUGUAUUCUUCUCAUAAGAUAUAGUCGGACCUCUCCUUAAUGGGAGCUAGCGGAUGAAGUGAUGCAACACUGGAGCCGCUGGGAACUAAUUUGUAUGCGAAAGUAUAUUGAUUAGUUUUGGAGUACUCGUGGUCG
An outline of the steps:
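A randomised library covering all eight P1ex-region intron nucleotides was built with the intron in the knt kanamycin-resistance gene on pET-22b(+) and held in E. coli BL21(DE3). Cells were grown overnight at 37°C or 30°C on LB agar, with or without 25 μg/mL kanamycin, plus 100 μg/mL carbenicillin, 50 μM IPTG and 0.2% rhamnose, and pooled colonies were amplicon-sequenced on an Illumina HiSeq 2500. DiMSum fitness is the error-weighted combination of wild-type-normalised replicate fold changes, kanamycin versus none.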

Take UGGGAGCAAUAUUACGUCGG: the “self-splicing fitness (ln)” value (30 °C) was -0.491 ± 0.24.
As to UGGGAGCAAUAUUACGUUAG, the “self-splicing fitness (ln)” value runs as follows: (30 °C) -3.58 ± 0.32; (37 °C) -2.13 ± 0.23.
For the sequence UGGGAGCAAUAUUACGUUCU, the “self-splicing fitness (ln)” value by setting is: (30 °C) -2.95 ± 0.29; (37 °C) -2.35 ± 0.32.
As for UGGUAGCAAUAUUACGAAAG, under “30 °C”, the “self-splicing fitness (ln)” value was -3.06 ± 0.26.
With UGGUAGCAAUAUUACGAACU, the “self-splicing fitness (ln)” value is, setting by setting: (30 °C) -0.279 ± 0.12; (37 °C) 0.0176 ± 0.18.
Consider UGGUAGCAAUAUUACGACCA, for which the “self-splicing fitness (ln)” value was -1.07 ± 0.18 (30 °C) and -1.02 ± 0.2 (37 °C).
As for UGGUAGCAAUAUUACGACCC, the “self-splicing fitness (ln)” value runs as follows: (30 °C) 0.0232 ± 0.27; (37 °C) -0.576 ± 0.36.
Turning to UGGUAGCAAUAUUACGACUA, the “self-splicing fitness (ln)” value is -0.227 ± 0.16 (30 °C) and -0.296 ± 0.2 (37 °C).
UGGUAGCAAUAUUACGAGUA: the “self-splicing fitness (ln)” value was -0.457 ± 0.19 (30 °C) and -0.963 ± 0.2 (37 °C).
Regarding UGGUAGCAAUAUUACGAUGG, the “self-splicing fitness (ln)” value (30 °C) is -2.44 ± 0.15 and the “self-splicing fitness (ln)” value (37 °C) was -1.1 ± 0.17.
For UGGUAGCAAUAUUACGAUUU the same measures were -1.14 ± 0.14 and -0.866 ± 0.14.
With UGGUAGCAAUAUUACGCCAU, the “self-splicing fitness (ln)” value (37 °C) was -1.09 ± 0.48.
With UGGUAGCAAUAUUACGCCUA, the “self-splicing fitness (ln)” value reads like this: (30 °C) 0.144 ± 0.11; (37 °C) 0.464 ± 0.12.
Turning to UGGUAGCAAUAUUACGCGCU, the “self-splicing fitness (ln)” value by setting is: (30 °C) -2.58 ± 0.18; (37 °C) -1.31 ± 0.18.
Take UGGUAGCAAUAUUACGCUCU: the “self-splicing fitness (ln)” value by setting is: (30 °C) -2.22 ± 0.2; (37 °C) -1.31 ± 0.24.
For UGGUAGCAAUAUUACGCUUA, the “self-splicing fitness (ln)” value is -0.955 ± 0.18 (30 °C) and -0.553 ± 0.22 (37 °C).
On to UGGUAGCAAUAUUACGGUAG, for which the “self-splicing fitness (ln)” value (30 °C) was -2.53 ± 0.2 and the “self-splicing fitness (ln)” value (37 °C) was -0.912 ± 0.14.
The like results for UGGUAGCAAUAUUACGGUUA were, in that order, -0.381 ± 0.12 and 0.439 ± 0.15.
The like results for UGGUAGCAAUAUUACGUCGC were, in that order, -3.78 ± 0.21 and -2.88 ± 0.19.
For the sequence UGGUAGCAAUAUUACGUCGU, the “self-splicing fitness (ln)” value was -2.83 ± 0.15 (30 °C) and -1.59 ± 0.16 (37 °C).
For UGGUAGCAAUAUUACGUGAA the same measures were -1.96 ± 0.14 and -1.57 ± 0.15.
Turning to UGGUAGCAAUAUUACGUGCU, the “self-splicing fitness (ln)” value is -2 ± 0.13 (30 °C) and -1.18 ± 0.16 (37 °C).
For UGGUAGCAAUAUUACGUUAA, the “self-splicing fitness (ln)” value (30 °C) was -3.27 ± 0.21 and the “self-splicing fitness (ln)” value (37 °C) was -1.78 ± 0.17.
For UGUAAGCAAUAUUACGAAUU, the “self-splicing fitness (ln)” value (30 °C) was -2.57 ± 0.25 and the “self-splicing fitness (ln)” value (37 °C) was -1.64 ± 0.19.
UGUAAGCAAUAUUACGACCA: the “self-splicing fitness (ln)” value was found to be 0.386 ± 0.12 (30 °C) and 0.0758 ± 0.19 (37 °C).
On to UGUAAGCAAUAUUACGACUA, for which the “self-splicing fitness (ln)” value reads like this: (30 °C) 0.00851 ± 0.12; (37 °C) 0.0364 ± 0.14.
For UGUAAGCAAUAUUACGCACC the same measures were -0.744 ± 0.36 and 0.286 ± 0.37.
For the sequence UGUAAGCAAUAUUACGCCCA, the “self-splicing fitness (ln)” value (30 °C) is -0.177 ± 0.18 and the “self-splicing fitness (ln)” value (37 °C) is 0.0098 ± 0.2.
For UGUAAGCAAUAUUACGCUCU the same measures were 0.793 ± 0.47 and -0.974 ± 0.45.
Turning to UGUAAGCAAUAUUACGCUGU, the “self-splicing fitness (ln)” value reads like this: (30 °C) -3.43 ± 0.18; (37 °C) -2.07 ± 0.18.
As to UGUAAGCAAUAUUACGGACA, the “self-splicing fitness (ln)” value is -0.174 ± 0.16 (30 °C) and 0.153 ± 0.23 (37 °C).
The like results for UGUAAGCAAUAUUACGGGCC were, in that order, -2.87 ± 0.41 and -1.23 ± 0.41.
For UGUAAGCAAUAUUACGGGGG the same measures were -3.46 ± 0.22 and -1.88 ± 0.21.
Take UGUAAGCAAUAUUACGGUCU: the “self-splicing fitness (ln)” value was -0.465 ± 0.089 (30 °C) and -0.33 ± 0.11 (37 °C).
Take UGUAAGCAAUAUUACGGUUC: the “self-splicing fitness (ln)” value (37 °C) is -2.92 ± 0.31.
Regarding UGUAAGCAAUAUUACGUAAC, the “self-splicing fitness (ln)” value is -2.22 ± 0.15 (30 °C) and -2.91 ± 0.4 (37 °C).
The like results for UGUAAGCAAUAUUACGUACA were, in that order, -0.772 ± 0.098 and -0.557 ± 0.16.
As to UGUAAGCAAUAUUACGUCUC, the “self-splicing fitness (ln)” value (37 °C) is -1.56 ± 0.23.
With UGUAAGCAAUAUUACGUUGG, the “self-splicing fitness (ln)” value (30 °C) is -2.14 ± 0.14 and the “self-splicing fitness (ln)” value (37 °C) was -1.46 ± 0.18.
